# From PMC10191836
# Legend:
# [1] = target: fibrillin microfibrils purified from bovine ciliary zonules (bovine (endogenous in ciliary zonule)); experiment: STEM mass mapping; full-length LTBP-1 incubated with bovine microfibrils at a 2:1 molar ratio for 4 h at 4 °C; mass per microfibril repeat with and without LTBP-1
# [2] = target: fibrillin microfibrils purified from bovine ciliary zonules (bovine (endogenous in ciliary zonule)); experiment: cryo-EM structure; native bovine ciliary zonule microfibrils in 20 mM Tris-HCl, 150 mM NaCl, 2 mM CaCl2 pH 7.4; single-particle reconstruction of bead (9.7 Å) and arm (18.3 Å) regions, C2 symmetry imposed
stoichiometry N (LTBP-1 molecules per microfibril repeat) [1],fibrillin monomers per microfibril repeat (monomers per repeat) [2],Substance
2,–,full-length human LTBP-1S (short splice form of latent TGFβ-binding protein-1) (natural protein)
–,8,fibrillin microfibrils purified from bovine ciliary zonules (complex)
